Results reported in the supplement of paper PMC9170038.

Test system: K4 kissing-loop RNA reporter
Assay: apparent KD of K4 kissing-loop reporter; higher = weaker reporter binding
Conditions: Eterna round: R107
Protocol: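 RNA-MaP round R107: designed RNA switches with theophylline, tryptophan, arginine or FMN aptamers are transcribed on-chip within common flanks. They are titrated with a labelled K4 kissing-loop RNA reporter in RNA-MaP buffer (100 mM Tris pH 7.5, 80 mM KCl, 4 mM MgCl2), without ligand or with the indicated ligand. Median apparent KD per design.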

[1] = input ligand: theophylline 20 uM
[2] = input ligand: tryptophan 2.4 mM
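Note: bound reporter read as fluorescence of individual clusters on recovered sequencing chips by microscopy, with normalized cluster intensities fitted with a binding model.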

Sequence | apparent KD of K4 kissing-loop reporter (input ligand: FMN 200 uM) [nM] | apparent KD of K4 kissing-loop reporter (input ligand: arginine 13.2 mM) [nM] | apparent KD of K4 kissing-loop reporter (input ligand: none) [nM] | apparent KD of K4 kissing-loop reporter [1] [nM] | apparent KD of K4 kissing-loop reporter [2] [nM]
UGAUACCAGACGGCCGCCACUACACCAGUCAAAGACUGGAUGUGAUGUUCGACCAGUGAUGUUGGUAGGACCGGGUCUGGUAUCU [TrypBX 7 #Palindromic #SwitchBubble #StaticStem] | 133 | 121 | 127 | 109 | 147
AGUGUUAGGUUAGAUACCAGCCGUCUGUGAGUAACCCACAGACCGCCAGUGAUGUUGGCAGGCCCUUGGCAGCUAACAGGACAGA [Anesarerza] | 211 | 226 | 210 | 152 | 211
CAGCCCAAAUGGCGAGAAGUGUUCCUUAGUCGAGGACCGGUACGGCCGCCACUCGCUCUAAACAUUAGGAGUGAUGUUCCAUUAG | 168 | 258 | 215 | 335 | 90.6
AGUGAUGUAUGGCGGUGUGUCACUUAAAAUCAGGAUAUAUAAACAAAUAGAAGGGAUGGCGGAGUGAUGUUCCGCCGGCCGCCAU [FMN A Exl V2] | 173 | 147 | 157 | 165 | 159
UGACUGGACUGAAGGAGCGUUCAGGUAGGUCGCAUAGGAGUGAUGUUCCAAUGAAGGAGCGAGCAGGUAGGUCGCAGUCUAGUCU [ArgBS 13 #DoubleAptamer #SwitchBubble] | 157 | 219 | 243 | 205 | 158
AAAAUAAUCCAGUGAUGUUGGUAACCAGAUACCAGCGACGAAAGUCGCCCUUGGCAGCUGUGGACGUACAAAAUAAGUACGUCCU | 344 | 415 | 441 | 358 | 312
CACGAUGAAUUCUCUAGGAGUGAUGUUUUUCGAGGACCGGUACGGCCGCCACUCGGACGACGAGUGUGGUAGCGGGCUGAAGACU [zgullin] | 429 | 262 | 643 | 239 | 561
AAGUGAUGUUGUAGUGAUGUUGUGAUGUUGCAGGAUAUAUAGUGAUGUAGAAGGGUAUGUGCAGUGUUCUUAUUUGAGUGUUGAU [zffdmullin] | 80.1 | 33.9 | 64.7 | 63.2 | 64
UGGAUAUCGUUUAGUCUGGUGAGGUCAGAUACCAGACUAGCGAUAGUCCCUUGGCAGCUGAUUAUGAUUGAGUGAUGUUCAAUCG [Theo A Ex t9a] | 179 | 154 | 175 | 180 | 180
CAUACGCAUGGAGGAUAUGAGAUUACUCAUGUCAUUUAAUAUUCUCAGUGAUGUUGAGAUUUAGGCUCAGAAGGCCAUGUGUAUG [Ex FMN B 17] | 355 | 514 | 630 | 534 | 525
UGUGUUGUUGUGAUGUUUGGUGUUGUAGGGCAGGAUAUCGUAGAGGCGAGAAGGGCUUGUGGGCGGUAUGAGUGAUGUUUGUAGG [cfiuxmullin] | 116 | 77.6 | 124 | 143 | 101
GUGGUACAGGCGGCCGCCACUAGUGAUGUUAGUGAUAGAAGAUAUAGUAAAUAUCGGCAUUUAGAUAGGACCGGGCCUGGUGGUG [xxfxcmullin] | 353 | 245 | 305 | 309 | 267
GGAUAGGAUAGAGGAUAUGGAAAACACAAAAGUGACUUGUUGUGUUUAUCCAUAGGGAGUGAUGUUCCAGAAGGCUGUCCUAUCG [MatMod 23 - Jieux - Exclusion - FMN B] | 229 | 169 | 169 | 164 | 136
UGAUACCAGACUGAUACCAGCCAGUGAUGUUGGCAAUAACCAAGGCGAGUCAAAGACUCGGGCCCUUGGCAGCAGUCUGGUAUCU [TheoBX 6 #SwitchBubble #StaticStem] | 134 | 150 | 133 | 143 | 136
AGCUCAGAGUGACUCGAUAAGAGUCACAAACGAGGACCGGUACGGCCGCCACUCGAAAUAAUGAGAGUGAUGUUCUCGCUGAGCA [#SwitchBubble 2 #StaticStem #K4Late] | 221 | 98.6 | 89 | 145 | 793
UGCAGUGAUGUUGCGAGUGGCAGAUACGAAGGAGCGUGGUGAGACACAGGUAGGUCGCGUAUUGAAAUUGCUGUCACUAAAAUGC [#7] | 448 | 469 | 505 | 483 | 362
GCCAGAGCGCGAAGGAGCGCCCUGACAGGUUGCUGCCGUGGGCAGUGAUGUUGCUCAGUCCGGCAGGUAGGUCGCGUGCUCUGGC | 222 | 165 | 193 | 196 | 174

Sequence | apparent KD of K4 kissing-loop reporter (input ligand: FMN 200 uM) [nM] | apparent KD of K4 kissing-loop reporter (input ligand: arginine 13.2 mM) [nM] | apparent KD of K4 kissing-loop reporter (input ligand: none) [nM] | apparent KD of K4 kissing-loop reporter [1] [nM] | apparent KD of K4 kissing-loop reporter [2] [nM]
AAGAGCCUCAAGAGGCAGUAUCUGCCUCAACGAGGACCGGUACGGCCGCCACUCGAAUAAUAGAGUGAUGUUCUAAGAGGCUCAA [AK8 SS Tryptophan A] | 710 | 558 | 586 | 548 | 487
AAUUCUUAUCUUAGUUGAUUUCUAAUUAAACGAGGACCGGUACGGCCGCCACUCGGUUAUGAGUGAUGUUCAUGGAAUUACAUAA [JR_SSTryptoA_Sub019] | 407 | 601 | 515 | 791 | 169
CUUGGAAGGACGGCCGCCACUGGGCAGUGAUGUUGCCCGAGUUGGUAACGCAGUGAUGUUGCGUCCAGGACCGGGUCCUAGGAAU [Exclusion Tryptophan B GF 25] | 141 | 113 | 112 | 106 | 139
ACCUACCAUUAGUGAUGUUAAUGGACGGAAGGAGCGCAGAUAUCUGCAGGUAGGUCGCCGAAGGCUAGACAUUGUCUAGCCAUUA [AK1.1 SS Arginine A] | 227 | 178 | 197 | 163 | 183
UUUAACGAGUGAUGUUCGAAAAGUAAUAGUUAGGAUAUCGUUUUUUCGAGAAGGAACUUCGAAGUGAUACGAAAGUAUCGCUUCG [FMN A 1] | 180 | 359 | 287 | 351 | 181
CUCGUGGGUUUGAGAGGGUUUGUGGGAAGUGAGGAUAUUUAGGGAGAAAGAAGGCACUAUAAAAUAUAGUGAUGUUAUAUAAGGG [SSFMNA.L] | 277 | 141 | 325 | 194 | 198
UAGAAGAGAAGCGAUACCAGCGAAUGAAGAAGAUGAUGAAGCCAGUGAUGUUGGAAAGAACGCCCUUGGCAGCGCAAGAGAAGAU | 119 | 163 | 107 | 175 | 83.2
UGACUGGACUGAAGGAGCGCUUAACUCCUAGUGAUGUUAGGAAAACGAGACAAAGUCUCGAAGCAGGUAGGUCGCAGUCUAGUCU | 152 | 123 | 151 | 158 | 132
UUUUUUUACUGAAGGAGCGGCAAUUGAUACGUAGAUAUAGUGAUGUUAUAUAAGAUAGAGAGCCAGGUAGGUCGCAGAUUUUUUU [ExArgB.W] | 153 | 171 | 163 | 167 | 147
UGUGAACAAAAGUAGAGUGGACCACUAUAGCGAGGACCGGUACGGCCGCCACUCGUACAUGAAUUCAGUGAUGUUGAAAUGAGCU [whbob_EX_Tryp_A_t14] | 234 | 360 | 334 | 426 | 213
GGGAGGAGUGGUGUUGAUUAAGAAGCGGAAGGAGCGCCGAAGAAGGCAGGUAGGUCGCCGGAAUAUAGUGAUGUUAUAUAGAGGG [ExArg.E] | 529 | 323 | 230 | 406 | 252
AGACUUCACCGAAGGAGCGACGUGGUCUAGUGAUGUUAGACACGAGAGAAAUCUCGUAUACGUCAGGUAGGUCGCGGUGAAGUCA [Omei KL Arginine B SS C v9] | 147 | 119 | 146 | 117 | 133
UGACUGGACUGAAGGAGCGGGCGAGACAAAGUCUCGAACUCUUAGUGAUGUUAGGAAAUAACCCAGGUAGGUCGCAGUCUAGUCU | 243 | 132 | 178 | 216 | 188
AUGUGGAGCGACGUUUCGGGAUAUCGGGAAGGAGCGCUGAUAACGGCAGGUAGGUCGCCUGGUCCAGUGAUGUUGGGCAUGCAUU [Exclusion Arg A GF 24] | 150 | 135 | 270 | 185 | 155
CUCCGACUAUCGGCCGCCACUAUCGGAAAGUCCACGGACAUUCAAUGCAGUUAGUGAUGUUAACGUAGGACCGGGAUGAUUUGUA [theeternabot_sameState_KL_Trp_B_9] | 543 | 350 | 659 | 541 | 491
UGUCAUGGAAACAUGAACGUUAAAAUAAAUCGAGGACCGGUACGGCCGCCACUCGUAUAGCGGUCAGUGAUGUUGACUGUAGUAA [KL-SSTryp-A form2 sub8] | 99.2 | 116 | 108 | 116 | 96.8
